# Assay results as given in the nanobody polyreactivity screen of Harvey et al. (2022).
# Test: yeast display, Sf9 membrane polyspecificity reagent, FACS + sequencing; frameworks hold sequencing errors
# Summary of the method: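 Polyreactivity labels are assigned by the sorting gate from which each nanobody was recovered. The gates were low and high (top ~1%), set on anti-HA fluorescence for expression and streptavidin fluorescence for reagent binding. Before sorting, galactose-induced (36–48 hours) yeast display cells were stained for 1 hour at 4 °C with 10% biotinylated, detergent-solubilized Sf9 membrane reagent.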
row,Sequence,polyreactivity (PSR sort gate)
1,QVQLVESGGGLVQAGGSLRLSCAASGSTFYVYAMGVYRQAPGKERELVAAIRGGGSTNYADSVKGRFTISRDNAKNTVYLQMNSLKPEDTAVYYCAARYRSLRYRPSGYSYNYWGQGTQVTVSS,high polyreactivity
2,QVQLVESGGGLVQAGGSLRLSCAASGSTFYVYAMGWYRKAPGKEREFVAVITTSGGTTYYADSVKGRFTISRDNAKNTVYLQMNSLKPEDTAVYYCNAGVGYYSLPYDYWGQGTQVTVSS,low polyreactivity
3,QVQLVESGGGLVQAGGSLRLSCAASGSTFYVYAMGWYRQAPGKDRELVAAITFSGGSTYADSVKGRFTISRDNAKNTVYLQMNSLKPEDTAVYYCATDERGRYTVVYVDEFLYDYWGQGTQVTVSS,low polyreactivity
4,QVQLVESGGGLVQAGGSLRLSCAASGSTFYVYAMGWYRQAPGKERELVAAIDRGSSTYADSVKGRFTISRDNAKNTVYLQMNSLKPEDTAVYYCAAEKERDEEYDYWGQGTQVTVSS,low polyreactivity
5,QVQLVESGGGLVQAGGSLRLSCAASGSTFYVYAMGWYRQAPGKERELVAAITSGDDTNYADSVKGRFTISRDNAKNTVYLQMNSLKPEDPAVYYCAAEAVGYGSPRGYYWYDYWGQGTQVTVSS,high polyreactivity
6,QVQLVESGGGLVQAGGSLRLSCAASGSTFYVYAMGWYRQAPGKERELVAAITSGSSTYADSVKGRFTISRDNAKNTVYLQMNSLKPEDTAVFYCNALSRTAWSYYLYPSTPFDYWGQGTQVTVSS,low polyreactivity
7,QVQLVESGGGLVQAGGSLRLSCAASGSTFYVYDMGWYRQAPWKERELVAAISSGAGSTYYADSVKGRFTSSRDNAKNTVYLKLNSLKRKIPRSITALLFTVNGGGSRSHDYWAQGTQVTVSS,low polyreactivity
8,QVQLVESGGGLVQAGGSLRLSCAASGSTFYWNALGWYRQAPGKERELVADIDGRGGSTYYADSVKGRFTISRDNAKNTVYLQMNSLKPEDTAVYYCAARAPFLSVPSELDYWGQGTQVTVSS,low polyreactivity
9,QVQLVESGGGLVQAGGSLRLSCAASGSTFYWNGMGWYRQAPGKERELVAAITKSGSRTYYADSVKGRFTISRDNAKNTVYLQMNSLKPEDTAVYYCAAVNYIYTGGGTYYYWGQGTQVTVSS,high polyreactivity
10,QVQLVESGGGLVQAGGSLRLSCAASGSTFYWYAMGWYRQAPGKEREFVAAISLGSGSTYYADSVKGRFTISRDNAKNTVYLQMNSLKPEDTAVYYCATVPWYIKVGQKRNDYWGQGTQVTVSS,high polyreactivity
11,QVQLVESGGGLVQAGGSLRLSCAASGSTFYYAMGWYRQAPGKEMELVASITFSTGSTYYADSVKGRFTISRDNAKNTVYLQMNSLKPEDTAVYYCATGVDTYSLTVEHDSWGQGTQVTVSS,low polyreactivity
12,QVQLVESGGGLVQAGGSLRLSCAASGSTFYYNAMGWYRQAPGKEREFVAAITYTGGSTDYADSVKGRFTISRDNAKNTVYLQMNSLKPEDTAVYYCAKGTYGYISTWYDYWGQGTQVTVSS,low polyreactivity
13,QVQLVESGGGLVQAGGSLRLSCAASGSTFYYNAMGWYRQAPGKERELVADISWRGGITYYADSVKGRFTISRDNAKNTVYLQMNSLKPEDTAVYYCAADIYPDWIYLLYGYWGQGTQVTVSS,low polyreactivity
14,QVQLVESGGGLVQAGGSLRLSCAASGSTFYYNAMGWYSQAPGKERELVAAISSDGSTNYADSVKGRFTISRDNAKNTVNLQMNSLKPEDTAVYYCAKKDFYFAPSPGYYRSRDYWGQGTQVTVSS,low polyreactivity
15,QVQLVESGGGLVQAGGSLRLSCAASGSTFYYNTLGWYRQAPGKERELVAAISRSGGSTYYADSVKGRFTISRDNAKNTVYLQMNSLKPEDTAVYYCAARIIGARNLYGYWGQGTQVTVSS,high polyreactivity
16,QVQLVESGGGLVQAGGSLRLSCAASGSTFYYNTMGWYRQAPGKDRELVAAITWTGGSTYYADSVKGRFTISRDNAKNTVYLQMNSLKPEDTAVYYCAAVNWRDEIYDYWGQGTQVTVSS,low polyreactivity
17,QVQLVESGGGLVQAGGSLRLSCAASGSTFYYNVMGWYRQAPGKEREFVAAITQRGGSTYYADSVKGRFTISRDNAKNTVYLQMNSLKPEDTAVYYCAARTRYDFDWGQGTQVTVSS,high polyreactivity
